This assay deals with His6-Z_GFP 11 (GFP 11 genetically fused to the C-terminus of the IgG binding Z domain derived from protein A). The assay can be described thus: split reporter (BiFC, NanoBiT); split-GFP fluorescence complementation in solution, 96-well plate, TNG buffer, 225 µM His6-Z_GFP 11 and 0.2 µM GFP 1–10 variant, 25 °C, excitation 488 nm, emission 535 nm, controls without His6-Z_GFP 11 subtracted.

As to “GFP 1–10 OPT (non-maturated) (domain or fragment)”, the rate of increase of the fluorescent signal after adding His6-Z GFP 11 is 0.5 a.u./second.

On to “GFP 1–10^mat (GFP 1–10 with maturated chromophore) (domain or fragment)”, for which the rate of increase of the fluorescent signal after adding His6-Z GFP 11, additional hour after the first two minutes turned out to be 6 a.u./sec and the rate of increase of the fluorescent signal after adding His6-Z GFP 11, first two minutes is 83 a.u./sec.

The values above are taken from PMC6342966.
